From patent US20240181007A1, “COMPOSITIONS AND METHODS FOR TREATING PULMONARY HYPERTENSION” (Acceleron Pharma Inc., priority 2021, published 2024)
One block for each molecule: values may come before it.

Tests used:
[1] = Muscle-building activity in vivo; conditions: material from CHO, HEK293 and COS cells; variability in potency was observed
GDF8 = target: T1, GDF8 (UniProt O14793 267-375); test: SPR (Biacore), fusion protein captured by anti-Fc antibody, ligand injected, 37 C
T1 construct: also called Growth and differentiation factor-8; myostatin
T1 sequence (looked up): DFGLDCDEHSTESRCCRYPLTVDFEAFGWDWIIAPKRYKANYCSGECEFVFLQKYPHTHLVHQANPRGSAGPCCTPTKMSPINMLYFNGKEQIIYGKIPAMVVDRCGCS
Procedure: (§1) A Biacore™-based binding assay was used to compare the ligand binding kinetics of an ActRIIB-Fc:ActRIIB(L79E)-Fc heterodimer with those of unmodified ActRIIB-Fc homodimer. Fusion proteins were captured onto the system using an anti-Fc antibody. Ligands were then injected and allowed to flow over the captured receptor protein at 37° C. Results are summarized in the table below, in which ligand off-rates (kd) most indicative of effective ligand traps are denoted in bold.

BMP10 [2] = target: T2, BMP10 (UniProt O95393 317-424); test: as above
T2 sequence (looked up): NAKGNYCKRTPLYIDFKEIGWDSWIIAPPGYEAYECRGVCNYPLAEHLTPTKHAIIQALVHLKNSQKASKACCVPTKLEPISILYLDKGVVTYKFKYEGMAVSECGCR
Procedure: as §1

BMP9 = target: T3, BMP9 (UniProt Q9UK05 320-429); test: as above
T3 sequence (looked up): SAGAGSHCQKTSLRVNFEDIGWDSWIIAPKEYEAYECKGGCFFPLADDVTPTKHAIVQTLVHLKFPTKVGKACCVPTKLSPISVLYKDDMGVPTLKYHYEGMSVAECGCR
Procedure: as §1

GDF3 = target: T4, GDF3 (UniProt Q9NR23 251-364); test: as above
T4 sequence (looked up): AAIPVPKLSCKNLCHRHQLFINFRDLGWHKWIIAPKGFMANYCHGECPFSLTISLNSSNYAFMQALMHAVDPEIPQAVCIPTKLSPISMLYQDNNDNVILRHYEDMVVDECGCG
Procedure: as §1

activin B = target: T5, activin B (UniProt P09529 293-407); test: as above
T5 sequence (looked up): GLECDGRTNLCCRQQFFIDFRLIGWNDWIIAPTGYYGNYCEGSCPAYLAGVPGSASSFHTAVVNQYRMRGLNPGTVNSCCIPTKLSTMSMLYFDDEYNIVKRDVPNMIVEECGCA
Procedure: as §1

BMP6 = target: T6, BMP6 (UniProt P22004 382-513, limits assumed); test: as above
T6 sequence (looked up): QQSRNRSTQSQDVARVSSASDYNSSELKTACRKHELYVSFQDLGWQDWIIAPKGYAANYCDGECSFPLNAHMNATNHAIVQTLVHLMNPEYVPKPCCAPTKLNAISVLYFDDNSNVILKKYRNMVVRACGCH
Procedure: as §1

activin A [3] = target: T7, activin A (UniProt P08476 311-426); test: as above
T7 construct: Soluble ligand injected in SPR or added in the reporter assay
T7 sequence (looked up): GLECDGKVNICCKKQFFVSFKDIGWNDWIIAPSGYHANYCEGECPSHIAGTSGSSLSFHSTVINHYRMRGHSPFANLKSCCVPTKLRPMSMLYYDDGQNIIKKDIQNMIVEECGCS
Procedure: as §1

GDF11 = target: T8, GDF11 (UniProt O95390 299-407); test: as above
T8 construct: also called Growth and differentiation factor-11; BMP11
T8 sequence (looked up): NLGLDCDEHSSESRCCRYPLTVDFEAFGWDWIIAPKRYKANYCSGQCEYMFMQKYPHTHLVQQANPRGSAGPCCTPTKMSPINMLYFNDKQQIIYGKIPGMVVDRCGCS
Procedure: as §1

BMP10 [4] = target: T2, BMP10; test: SPR (Biacore), 37 C
Procedure: as §1

activin A [5] = target: T7, activin A; test: SPR (Biacore), 37 C
Procedure: as §1

Molecule: ActRIIB-G1Fc: extracellular domain of human ActRIIB fused to a human G1Fc domain with a three-glycine linker; SEQ ID NO: 5
- muscle-building activity in vivo [1]: muscle-building activity in vivo

- Kd (GDF8): 0.15 nM
- koff (GDF8): 0.0005 s⁻¹
- kon (GDF8): 3.4e+06 M⁻¹ s⁻¹
- Kd (BMP10 [2]): 0.042 nM
- koff (BMP10 [2]): 0.002 s⁻¹
- kon (BMP10 [2]): 4.8e+07 M⁻¹ s⁻¹
- Kd (BMP9): > 2.8 nM
- Kd (GDF3): 10 nM
- koff (GDF3): 0.0059 s⁻¹
- kon (GDF3): 580000 M⁻¹ s⁻¹
- Kd (activin B): 0.025 nM
- koff (activin B): 0.00021 s⁻¹
- kon (activin B): 8.3e+06 M⁻¹ s⁻¹
- Kd (BMP6): 0.056 nM
- koff (BMP6): 0.018 s⁻¹
- kon (BMP6): 3.3e+08 M⁻¹ s⁻¹
- Kd (activin A [3]): 0.17 nM
- koff (activin A [3]): 0.0015 s⁻¹
- kon (activin A [3]): 8.8e+06 M⁻¹ s⁻¹
- Kd (GDF11): 0.009 nM
- koff (GDF11): 0.00036 s⁻¹
- kon (GDF11): 4e+07 M⁻¹ s⁻¹
- fold faster off-rate compared to ActRIIB-Fc homodimer (BMP10 [4]): ~10 fold
- fold faster off-rate compared to ActRIIB-Fc homodimer (activin A [5]): ~10 fold
B1: ActRIIB-Fc:ActRIIB(L79E)-Fc heterodimer (Fc fusion)
chain 1: GRGEAETRECIYYNANWELERTNQSGLERCEGEQDKRLHCYASWRNSSGTIELVKKGCWEDDFNCYDRQECVATEENPQVYFCCCEGNFCNERFTHLPEAGGPEVTYEPPPTAPTGGGTHTCPPCPAPELLGGPSVFLFPPKPKDTLMISRTPEVTCVVVDVSHEDPEVKFNWYVDGVEVHNAKTKPREEQYNSTYRVVSVLTVLHQDWLNGKEYKCKVSNKALPAPIEKTISKAKGQPREPQVYTLPPSREEMTKNQVSLTCLVKGFYPSDIAVEWESNGQPENNYDTTPPVLDSDGSFFLYSDLTVDKSRWQQGNVFSCSVMHEALHNHYTQKSLSLSPG
chain 2: GRGEAETRECIYYNANWELERTNQSGLERCEGEQDKRLHCYASWRNSSGTIELVKKGCWLDDFNCYDRQECVATEENPQVYFCCCEGNFCNERFTHLPEAGGPEVTYEPPPTAPTGGGTHTCPPCPAPELLGGPSVFLFPPKPKDTLMISRTPEVTCVVVDVSHEDPEVKFNWYVDGVEVHNAKTKPREEQYNSTYRVVSVLTVLHQDWLNGKEYKCKVSNKALPAPIEKTISKAKGQPREPQVYTLPPSRKEMTKNQVSLTCLVKGFYPSDIAVEWESNGQPENNYKTTPPVLKSDGSFFLYSKLTVDKSRWQQGNVFSCSVMHEALHNHYTQKSLSLSPGK
notes: The ActRIIB extracellular domains and linkers are the same in both pairs; also called ActRIIB-Fc:ActRIIB(L79E)-Fc heteromer
